B1: Protein ZNRD2 (Homo sapiens), O60232 (parent)
chain: MALNGAEVDDFSWEPPTEAETKVLQARRERQDRISRLMGDYLLRGYRMLGETCADCGTILLQDKQRKIYCVACQELDSDVDKDNPALNAQAALSQAREHQLASASELPLGSRPAPQPPVPRPEHCEGAAAGLKAAQGPPAPAVPPNTDVMACTQTALLQKLTWASAELGSSTSLETSIQLCGLIRACAEALRSLQQLQH
partner: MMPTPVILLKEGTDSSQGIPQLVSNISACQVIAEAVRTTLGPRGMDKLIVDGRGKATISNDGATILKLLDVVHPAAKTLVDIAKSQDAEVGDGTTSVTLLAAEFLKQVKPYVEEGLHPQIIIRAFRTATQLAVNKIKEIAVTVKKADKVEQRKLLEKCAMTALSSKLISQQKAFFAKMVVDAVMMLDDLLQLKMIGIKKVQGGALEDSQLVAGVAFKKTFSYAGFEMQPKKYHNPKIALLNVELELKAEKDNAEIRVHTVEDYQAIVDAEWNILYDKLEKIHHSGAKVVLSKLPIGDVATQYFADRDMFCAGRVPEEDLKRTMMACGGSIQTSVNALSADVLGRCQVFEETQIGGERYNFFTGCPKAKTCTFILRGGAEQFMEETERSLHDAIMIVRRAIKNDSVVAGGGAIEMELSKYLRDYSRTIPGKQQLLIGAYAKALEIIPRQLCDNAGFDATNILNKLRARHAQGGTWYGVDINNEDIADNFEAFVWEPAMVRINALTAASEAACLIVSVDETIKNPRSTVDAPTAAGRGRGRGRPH
B2: Tripartite motif-containing protein 29 (Homo sapiens), Q14134-1 (parent)
chain: MEAADASRSNGSSPEARDARSPSGPSGSLENGTKADGKDAKTTNGHGGEAAEGKSLGSALKPGEGRSALFAGNEWRRPIIQFVESGDDKNSNYFSMDSMEGKRSPYAGLQLGAAKKPPVTFAEKGELRKSIFSESRKPTVSIMEPGETRRNSYPRADTGLFSRSKSGSEEVLCDSCIGNKQKAVKSCLVCQASFCELHLKPHLEGAAFRDHQLLEPIRDFEARKCPVHGKTMELFCQTDQTCICYLCMFQEHKNHSTVTVEEAKAEKETELSLQKEQLQLKIIEIEDEAEKWQKEKDRIKSFTTNEKAILEQNFRDLVRDLEKQKEEVRAALEQREQDAVDQVKVIMDALDERAKVLHEDKQTREQLHSISDSVLFLQEFGALMSNYSLPPPLPTYHVLLEGEGLGQSLGNFKDDLLNVCMRHVEKMCKADLSRNFIERNHMENGGDHRYVNNYTNSFGGEWSAPDTMKRYSMYLTPKGGVRTSYQPSSPGRFTKETTQKNFNNLYGTKGNYTSRVWEYSSSIQNSDNDLPVVQGSSSFSLKGYPSLMRSQSPKAQPQTWKSGKQTMLSHYRPFYVNKGNGIGSNEAP
B3: Ribose-phosphate pyrophosphokinase 1 (Homo sapiens), P60891 (parent)
chain: MPNIKIFSGSSHQDLSQKIADRLGLELGKVVTKKFSNQETCVEIGESVRGEDVYIVQSGCGEINDNLMELLIMINACKIASASRVTAVIPCFPYARQDKKDKSRAPISAKLVANMLSVAGADHIITMDLHASQIQGFFDIPVDNLYAEPAVLKWIRENISEWRNCTIVSPDAGGAKRVTSIADRLNVDFALIHKERKKANEVDRMVLVGDVKDRVAILVDDMADTCGTICHAADKLLSAGATRVYAILTHGIFSGPAISRINNACFEAVVVTNTIPQEDKMKHCSKIQVIDISMILAEAIRRTHNGESVSYLFSHVPL
partner: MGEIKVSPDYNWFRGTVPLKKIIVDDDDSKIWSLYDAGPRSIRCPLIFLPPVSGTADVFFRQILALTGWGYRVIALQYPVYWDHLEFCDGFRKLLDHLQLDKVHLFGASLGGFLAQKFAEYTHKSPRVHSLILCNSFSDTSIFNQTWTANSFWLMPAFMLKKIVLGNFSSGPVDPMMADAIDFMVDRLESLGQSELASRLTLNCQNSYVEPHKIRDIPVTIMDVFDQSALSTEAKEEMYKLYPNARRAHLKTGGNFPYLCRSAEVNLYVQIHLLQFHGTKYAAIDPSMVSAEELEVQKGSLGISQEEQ
B4: Homeobox protein VENTX (Homo sapiens), O95231 (parent)
chain: MRLSSSPPRGPQQLSSFGSVDWLSQSSCSGPTHTPRPADFSLGSLPGPGQTSGAREPPQAVSIKEAAGSSNLPAPERTMAGLSKEPNTLRAPRVRTAFTMEQVRTLEGVFQHHQYLSPLERKRLAREMQLSEVQIKTWFQNRRMKHKRQMQDPQLHSPFSGSLHAPPAFYSTSSGLANGLQLLCPWAPLSGPQALMLPPGSFWGLCQVAQEALASAGASCCGQPLASHPPTPGRPSLGPALSTGPRGLCAMPQTGDAF
partner: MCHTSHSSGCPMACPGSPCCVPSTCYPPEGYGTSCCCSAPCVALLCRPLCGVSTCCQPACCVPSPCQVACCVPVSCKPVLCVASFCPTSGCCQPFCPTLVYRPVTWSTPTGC
B5: 5'-AMP-activated protein kinase subunit beta-2 (Homo sapiens), O43741 (parent)
chain: MGNTTSDRVSGERHGAKAARSEGAGGHAPGKEHKIMVGSTDDPSVFSLPDSKLPGDKEFVSWQQDLEDSVKPTQQARPTVIRWSEGGKEVFISGSFNNWSTKIPLIKSHNDFVAILDLPEGEHQYKFFVDGQWVHDPSEPVVTSQLGTINNLIHVKKSDFEVFDALKLDSMESSETSCRDLSSSPPGPYGQEMYAFRSEERFKSPPILPPHLLQVILNKDTNISCDPALLPEPNHVMLNHLYALSIKDSVMVLSATHRYKKKYVTTLLYKPI
partner: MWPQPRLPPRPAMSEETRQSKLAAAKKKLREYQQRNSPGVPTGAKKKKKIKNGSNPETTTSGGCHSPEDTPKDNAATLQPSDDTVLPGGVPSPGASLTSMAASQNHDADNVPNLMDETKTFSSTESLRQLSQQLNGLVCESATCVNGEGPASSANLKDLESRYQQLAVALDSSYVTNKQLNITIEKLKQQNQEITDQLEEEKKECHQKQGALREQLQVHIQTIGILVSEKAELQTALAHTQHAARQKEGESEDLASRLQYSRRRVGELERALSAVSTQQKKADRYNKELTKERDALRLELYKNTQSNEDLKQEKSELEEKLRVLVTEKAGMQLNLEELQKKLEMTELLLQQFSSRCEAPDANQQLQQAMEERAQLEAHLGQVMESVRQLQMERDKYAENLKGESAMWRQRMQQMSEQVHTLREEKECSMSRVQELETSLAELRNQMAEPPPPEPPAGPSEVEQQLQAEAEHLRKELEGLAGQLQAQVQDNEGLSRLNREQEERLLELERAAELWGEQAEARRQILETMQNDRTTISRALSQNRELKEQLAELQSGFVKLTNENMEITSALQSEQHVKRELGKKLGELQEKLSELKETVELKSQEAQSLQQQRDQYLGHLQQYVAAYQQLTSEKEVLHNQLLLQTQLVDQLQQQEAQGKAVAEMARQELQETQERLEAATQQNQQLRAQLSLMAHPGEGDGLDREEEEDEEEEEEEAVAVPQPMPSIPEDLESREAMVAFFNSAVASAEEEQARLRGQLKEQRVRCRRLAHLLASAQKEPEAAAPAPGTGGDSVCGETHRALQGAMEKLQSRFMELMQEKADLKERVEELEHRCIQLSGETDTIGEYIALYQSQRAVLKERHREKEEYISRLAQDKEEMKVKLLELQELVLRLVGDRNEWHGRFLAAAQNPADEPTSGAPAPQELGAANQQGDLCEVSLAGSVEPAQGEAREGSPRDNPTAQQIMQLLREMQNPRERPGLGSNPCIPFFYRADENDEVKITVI
B6: Hypoxia-inducible factor 1-alpha inhibitor (Homo sapiens), Q9NWT6 (parent)
chain: MAATAAEAVASGSGEPREEAGALGPAWDESQLRSYSFPTRPIPRLSQSDPRAEELIENEEPVVLTDTNLVYPALKWDLEYLQENIGNGDFSVYSASTHKFLYYDEKKMANFQNFKPRSNREEMKFHEFVEKLQDIQQRGGEERLYLQQTLNDTVGRKIVMDFLGFNWNWINKQQGKRGWGQLTSNLLLIGMEGNVTPAHYDEQQNFFAQIKGYKRCILFPPDQFECLYPYPVHHPCDRQSQVDFDNPDYERFPNFQNVVGYETVVGPGDVLYIPMYWWHHIESLLNGGITITVNFWYKGAPTPKRIEYPLKAHQKVAIMRNIEKMLGEALGNPQEVGPLLNTMIKGRYN
B7: F-box/WD repeat-containing protein 1A (Homo sapiens), Q9Y297 (parent)
chain: MDPAEAVLQEKALKFMCSMPRSLWLGCSSLADSMPSLRCLYNPGTGALTAFQNSSEREDCNNGEPPRKIIPEKNSLRQTYNSCARLCLNQETVCLASTAMKTENCVAKTKLANGTSSMIVPKQRKLSASYEKEKELCVKYFEQWSESDQVEFVEHLISQMCHYQHGHINSYLKPMLQRDFITALPARGLDHIAENILSYLDAKSLCAAELVCKEWYRVTSDGMLWKKLIERMVRTDSLWRGLAERRGWGQYLFKNKPPDGNAPPNSFYRALYPKIIQDIETIESNWRCGRHSLQRIHCRSETSKGVYCLQYDDQKIVSGLRDNTIKIWDKNTLECKRILTGHTGSVLCLQYDERVIITGSSDSTVRVWDVNTGEMLNTLIHHCEAVLHLRFNNGMMVTCSKDRSIAVWDMASPTDITLRRVLVGHRAAVNVVDFDDKYIVSASGDRTIKVWNTSTCEFVRTLNGHKRGIACLQYRDRLVVSGSSDNTIRLWDIECGACLRVLEGHEELVRCIRFDNKRIVSGAYDGKIKVWDLVAALDPRAPAGTLCLRTLVEHSGRVFRLQFDEFQIVSSSHDDTILIWDFLNDPAAQAEPPRSPSRTYTYISR

Variants of: B1
Settings: with tcph_human CCT7, Q99832

Variant	effect of a mutation on the interaction
T21M	with no effect

Variants of: B2
Settings: with tri23_human TRIM23, P36406
tri23_human TRIM23, P36406, sequence (P36406 whole entry): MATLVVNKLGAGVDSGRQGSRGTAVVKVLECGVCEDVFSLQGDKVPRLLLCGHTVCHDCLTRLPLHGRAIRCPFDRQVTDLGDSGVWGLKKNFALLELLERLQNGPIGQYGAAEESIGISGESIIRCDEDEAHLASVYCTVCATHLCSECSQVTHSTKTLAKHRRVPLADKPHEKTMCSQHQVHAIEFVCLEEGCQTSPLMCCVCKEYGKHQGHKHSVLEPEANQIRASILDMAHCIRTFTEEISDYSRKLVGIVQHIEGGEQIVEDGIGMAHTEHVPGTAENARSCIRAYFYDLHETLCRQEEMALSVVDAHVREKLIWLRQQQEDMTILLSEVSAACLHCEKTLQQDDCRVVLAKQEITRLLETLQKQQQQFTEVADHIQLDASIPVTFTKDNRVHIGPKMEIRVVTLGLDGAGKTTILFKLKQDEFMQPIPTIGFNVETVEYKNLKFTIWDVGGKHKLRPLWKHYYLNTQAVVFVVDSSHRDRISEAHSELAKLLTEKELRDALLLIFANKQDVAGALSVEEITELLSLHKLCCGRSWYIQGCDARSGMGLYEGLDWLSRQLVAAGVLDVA

Variant	effect of a mutation on the interaction
S514F	with no effect

Variants of: B2
Settings: with cep70_human CEP70, Q8NHQ1
cep70_human CEP70, Q8NHQ1, sequence (Q8NHQ1 whole entry): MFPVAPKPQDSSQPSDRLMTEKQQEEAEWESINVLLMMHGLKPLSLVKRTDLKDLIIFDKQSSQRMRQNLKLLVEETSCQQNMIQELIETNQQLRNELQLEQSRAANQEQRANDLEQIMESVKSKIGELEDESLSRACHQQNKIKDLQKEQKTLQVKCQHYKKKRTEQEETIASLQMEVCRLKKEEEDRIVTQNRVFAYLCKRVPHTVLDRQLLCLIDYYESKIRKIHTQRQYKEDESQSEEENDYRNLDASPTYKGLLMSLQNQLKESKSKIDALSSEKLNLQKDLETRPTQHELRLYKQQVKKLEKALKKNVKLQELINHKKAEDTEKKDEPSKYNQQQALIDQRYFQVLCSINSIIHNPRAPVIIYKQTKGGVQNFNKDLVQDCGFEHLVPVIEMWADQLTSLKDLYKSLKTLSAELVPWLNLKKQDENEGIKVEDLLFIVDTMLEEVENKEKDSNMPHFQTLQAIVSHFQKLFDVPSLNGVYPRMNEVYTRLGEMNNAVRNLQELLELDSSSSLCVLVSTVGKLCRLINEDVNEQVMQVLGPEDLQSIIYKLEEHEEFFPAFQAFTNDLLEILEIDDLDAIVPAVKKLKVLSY

Variant	effect of a mutation on the interaction
S514F	disrupting interaction strength

Variants of: B2
Settings: with tri23_human TRIM23, P36406
Remark: another data set of the same source

Variant	effect of a mutation on the interaction
S91C	with no effect

Variants of: B2
Settings: with cep70_human CEP70, Q8NHQ1
Remark: another data set of the same source

Variant	effect of a mutation on the interaction
S91C	with no effect

Variants of: B3
Settings: with spg21_human SPG21, Q9NZD8

Variant	effect of a mutation on the interaction
E43D	with no effect
D183H	with no effect

Variants of: B4
Settings: with kr124_human KRTAP12-4, P60329

Variant	effect of a mutation on the interaction
M251V	with no effect

Variants of: B5
Settings: with goga2_human GOLGA2, Q08379

Variant	effect of a mutation on the interaction
G55E	with no effect

Variants of: B6
Settings: with asb9_human ASB9, Q96DX5
asb9_human ASB9, Q96DX5, sequence (Q96DX5 whole entry): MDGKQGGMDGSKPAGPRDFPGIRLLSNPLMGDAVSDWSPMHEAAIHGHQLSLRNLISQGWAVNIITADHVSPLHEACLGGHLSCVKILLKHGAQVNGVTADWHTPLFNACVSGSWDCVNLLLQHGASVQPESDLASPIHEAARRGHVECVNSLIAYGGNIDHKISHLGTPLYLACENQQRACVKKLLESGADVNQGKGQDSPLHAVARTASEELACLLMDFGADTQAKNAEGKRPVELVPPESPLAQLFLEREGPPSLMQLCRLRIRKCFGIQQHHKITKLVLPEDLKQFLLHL

Variant	effect of a mutation on the interaction
P41A	with no effect

Variants of: B7
Settings: with tacc1_human TACC1, O75410
tacc1_human TACC1, O75410, sequence (O75410 whole entry): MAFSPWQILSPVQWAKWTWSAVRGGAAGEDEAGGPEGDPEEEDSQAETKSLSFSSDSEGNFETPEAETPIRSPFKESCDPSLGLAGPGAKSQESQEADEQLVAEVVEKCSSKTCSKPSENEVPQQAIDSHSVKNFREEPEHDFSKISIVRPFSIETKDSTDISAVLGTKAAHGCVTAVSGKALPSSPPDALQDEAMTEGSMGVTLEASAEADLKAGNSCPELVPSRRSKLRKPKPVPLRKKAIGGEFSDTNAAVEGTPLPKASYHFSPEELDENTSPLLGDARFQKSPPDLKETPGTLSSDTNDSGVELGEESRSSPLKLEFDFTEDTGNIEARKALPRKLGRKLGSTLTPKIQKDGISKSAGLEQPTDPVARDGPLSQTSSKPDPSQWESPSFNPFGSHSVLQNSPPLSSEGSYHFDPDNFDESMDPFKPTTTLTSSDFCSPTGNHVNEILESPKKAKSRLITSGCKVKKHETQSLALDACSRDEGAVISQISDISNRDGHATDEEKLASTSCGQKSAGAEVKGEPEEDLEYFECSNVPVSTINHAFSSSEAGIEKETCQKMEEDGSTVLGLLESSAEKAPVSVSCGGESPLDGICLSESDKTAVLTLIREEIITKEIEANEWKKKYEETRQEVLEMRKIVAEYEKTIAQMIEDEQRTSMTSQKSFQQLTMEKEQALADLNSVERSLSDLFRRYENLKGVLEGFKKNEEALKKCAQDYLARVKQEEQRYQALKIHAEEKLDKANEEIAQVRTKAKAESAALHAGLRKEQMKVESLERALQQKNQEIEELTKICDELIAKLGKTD

Variant	effect of a mutation on the interaction
R594H	with no effect

Reference: IntAct's records for PubMed 31515488
